From FireProtDB (doi:10.1016/0167-4838(95)00124-d)

Details: Rattus norvegicus, pH 7.2, Absorbance, MOPS 0.1 M, reversible: Yes; for ddG of mutation (higher = less stable) / unfolding free energy: 25 °C, Urea; for Tm / change of melting temperature, mutant - wild type (higher = more stable): Thermal

Sequence of Cytochrome c, somatic P31A|Y68F, P62898 P31A Y68F (P62898 whole entry P31A/Y68F): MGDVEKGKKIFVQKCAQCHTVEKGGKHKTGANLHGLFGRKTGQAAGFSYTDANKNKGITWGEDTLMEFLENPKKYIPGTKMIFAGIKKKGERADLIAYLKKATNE
Sequence of Cytochrome c, somatic P31A, P62898 (P62898 whole entry P31A): as the sequence (P62898 whole entry P31A/Y68F) above, with F68Y counted along it
Sequence of Cytochrome c, somatic N53I, P62898 (P62898 whole entry N53I): as the sequence (P62898 whole entry P31A/Y68F) above, with A31P, N53I, F68Y counted along it
Sequence of Cytochrome c, somatic H27V, P62898 (P62898 whole entry H27V): as the sequence (P62898 whole entry P31A/Y68F) above, with H27V, A31P, F68Y counted along it
Sequence of Cytochrome c, somatic H34F, P62898 (P62898 whole entry H34F): as the sequence (P62898 whole entry P31A/Y68F) above, with A31P, H34F, F68Y counted along it
Sequence of Cytochrome c, somatic Y68F, P62898 (P62898 whole entry Y68F): as the sequence (P62898 whole entry P31A/Y68F) above, with A31P counted along it
Sequence of Cytochrome c, somatic H27V|H34F, P62898 H27V H34F (P62898 whole entry H27V/H34F): as the sequence (P62898 whole entry P31A/Y68F) above, with H27V, A31P, H34F, F68Y counted along it
Sequence of Cytochrome c, somatic P31V, P62898 (P62898 whole entry P31V): as the sequence (P62898 whole entry P31A/Y68F) above, with A31V, F68Y counted along it
Sequence of Cytochrome c, somatic wild type, P62898 (P62898 whole entry): as the sequence (P62898 whole entry P31A/Y68F) above, with A31P, F68Y counted along it
Sequence of Cytochrome c, somatic H27V|N53I, P62898 H27V N53I (P62898 whole entry H27V/N53I): as the sequence (P62898 whole entry P31A/Y68F) above, with H27V, A31P, N53I, F68Y counted along it

Substance	ddG of mutation (higher = less stable) (structure 1I5T) [kcal/mol]	unfolding free energy (structure 1I5T) [kcal/mol]	Tm (structure 1I5T) [°C]	change of melting temperature, mutant - wild type (higher = more stable) (structure 1I5T) [°C]	unfolding free energy [kcal/mol]	Tm [°C]
Cytochrome c, somatic H27V, P62898	3.78	5.72	50	-10		
Cytochrome c, somatic H27V|H34F, P62898 H27V H34F	2.15	7.35	53	-7		
Cytochrome c, somatic H27V|N53I, P62898 H27V N53I	1.86	7.64				
Cytochrome c, somatic H34F, P62898	-0.67	10.2	69			
Cytochrome c, somatic N53I, P62898		6.36	80	20		
Cytochrome c, somatic P31A, P62898	5.74	3.76	51	-9		
Cytochrome c, somatic P31A|Y68F, P62898 P31A Y68F		6.74	62	2		
Cytochrome c, somatic P31V, P62898			49	-11		
Cytochrome c, somatic Y68F, P62898		7.19	90	30		
Cytochrome c, somatic wild type, P62898					9.5	60
